Test results reported in patent publication US20040214227A1, “Bioluminescence resonance energy transfer (bret) fusion molecule and method of use” (priority 1999, published 2004).
Values belong to the compound of their own block, whether it stands above or below them.

Tests used:
[1] = biological target: Rluc:caspase:EYFP fusion protein expressed in HeLa cells (pCEP4/Rluc-caspase-EYFP) (Renilla) (UniProt P27652); experiment: cell-based or functional assay
[2] = biological target: GFP1:caspase-3:Rluc fusion protein expressed in HeLa cells (pGFP1:caspase-3:Rluc) (Aequorea victoria; Renilla) [GFP: P42212]; experiment: cell-based or functional assay
[3] = biological target: Rluc:EYFP fusion protein, N-terminal His tag, purified from bacteria (pQE-32) (UniProt P27652)
Chain of Rluc:EYFP fusion protein, N-terminal His tag, purified from bacteria (pQE-32) (P27652 whole entry, the tested form may be a part): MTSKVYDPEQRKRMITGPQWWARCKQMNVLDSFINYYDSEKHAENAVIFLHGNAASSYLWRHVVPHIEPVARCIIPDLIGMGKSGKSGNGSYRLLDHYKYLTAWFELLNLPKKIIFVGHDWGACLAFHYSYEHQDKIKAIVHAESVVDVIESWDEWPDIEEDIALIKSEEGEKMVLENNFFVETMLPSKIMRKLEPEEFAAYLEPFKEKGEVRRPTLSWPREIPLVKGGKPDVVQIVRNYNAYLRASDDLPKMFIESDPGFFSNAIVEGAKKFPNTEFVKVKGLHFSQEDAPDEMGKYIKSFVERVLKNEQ

[4] = biological target: Rluc:enterokinase:EYFP fusion protein, N-terminal His tag, purified from bacteria (pQE-32) (UniProt P27652)
Chain of Rluc:enterokinase:EYFP fusion protein, N-terminal His tag, purified from bacteria (pQE-32) (P27652 other isoform, or with tags, fused parts or gaps): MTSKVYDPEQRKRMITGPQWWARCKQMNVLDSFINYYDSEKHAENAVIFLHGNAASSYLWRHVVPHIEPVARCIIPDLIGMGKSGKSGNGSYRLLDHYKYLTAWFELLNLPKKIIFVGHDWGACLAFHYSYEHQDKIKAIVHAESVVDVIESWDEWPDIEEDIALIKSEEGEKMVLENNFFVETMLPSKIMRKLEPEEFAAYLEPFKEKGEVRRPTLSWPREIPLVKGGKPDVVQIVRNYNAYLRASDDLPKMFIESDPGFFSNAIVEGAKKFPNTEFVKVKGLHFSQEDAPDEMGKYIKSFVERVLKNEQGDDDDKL

[5] = test system: HeLa cells transfected with the GFP1:Caspase-3:Rluc sensor; experiment: apoptosis induction BRET assay, GFP1:Caspase-3:Rluc sensor; type: cell-based; conditions: 1 μM staurosporine, 5 hours, 37° C.; DeepBlueC; at time zero; ratio decreased
Procedure: (§1) PGFP1:caspase-3:Rluc DNAs and the original plasmid pGFP1::Rluc (without the caspase-3 site) were transfected into HeLa cell using LipofectAMINE (BRL/Gibco-Life technologies) in 100 mm dishes and 8 μg of plasmid DNA as described in the manufacturer's protocol. Twenty-four hours post-transfection transfected cells were harvested and distributed into 96-well microtiterplate (white Optiplate from Packard) at a density of 30 000 cells per well. The following day, cells were washed with PBS and were induced to undergo apoptosis by adding 100 μl of Iscove media without serum and phenol red (BRL/Life Technologies) containing staurosporine at a final concentration of 1 μM (+inducer; see FIG. 13) or 100 μl of Iscove alone (-inducer). Cells were incubated for 5 hours at 37° C. After this period, 50 μl of BRET buffer (PBS Ca^2+/Mg^2++glucose without aprotinin) and 50 μl of DeepBlueC (20 μM) were added to start the bioluminescence reaction. Total assay volume was 200 μl. Light emissions were detected using the BRETCount (read length of 1 sec. for each filter, SPC mode, temperature 25° C.).

[6] = test system: HeLa cells transfected with pGFP1::Rluc; experiment: apoptosis induction BRET assay, control construct without caspase-3 site; type: cell-based; conditions: 1 μM staurosporine, 5 hours
Procedure: as §1

[7] = test system: HeLa cells transfected with the apoptosis Rluc:Caspase:EYFP sensor; experiment: apoptosis induction BRET assay, Rluc:Caspase:EYFP sensor; type: cell-based; conditions: 1 μM staurosporine, 5 hours, 37° C.; coelenterazine h; ratios decreased
Procedure: pCEP4/Rluc-EYFP and pCEP4/Rluc-caspase-EYFP DNAs were transfected into HeLa cell using LipofectAMINE (BRL/Gibco-Life technologies) in 100 mm dishes as described in the manufacturer's protocol. 24 hours post-transfection, transfected cells were harvested and distributed into 96-well microtiterplates (white Optiplate from Packard) at a density of 30,000 cells per well. The following day, cells were induced to undergo apoptosis using 1 μM staurosporine dissolved in ISCOVE media (BRL/Gibco-Life technologies) without serum and phenol red at 37° C. (total volume here is 100 μl) for 5 hours. 50 μl of BRET buffer (PBS Ca^2+/Mg^2++glucose without aprotinin) and 50 μl of coelenterazine h (20 μM) were added to start the bioluminescence reaction. Light emissions were detected using the BRETCount (read length 1 sec for each filter, temperature 25° C.). Data was collected 10 minutes after the addition of coelenterazine h. The assay was done in quadruplicate.

Chain of Rluc:caspase:EYFP fusion protein expressed in HeLa cells (pCEP4/Rluc-caspase-EYFP) (Renilla) (P27652 other isoform, or with tags, fused parts or gaps): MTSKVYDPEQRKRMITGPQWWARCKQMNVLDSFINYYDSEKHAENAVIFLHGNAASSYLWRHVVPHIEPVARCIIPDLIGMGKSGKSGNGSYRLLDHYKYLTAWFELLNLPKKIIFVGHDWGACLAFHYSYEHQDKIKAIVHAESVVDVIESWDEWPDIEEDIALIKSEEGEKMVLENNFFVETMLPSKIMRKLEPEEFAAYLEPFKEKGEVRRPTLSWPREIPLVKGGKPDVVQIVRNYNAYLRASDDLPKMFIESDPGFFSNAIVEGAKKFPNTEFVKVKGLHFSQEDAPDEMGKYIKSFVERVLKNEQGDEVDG

- BRET ratio change in transfected HeLa cells after 5 hours of apoptosis induction by 1 uM staurosporine (unit (BRET ratio)) [1]: 0.1
- BRET ratio change in transfected HeLa cells after 5 hours of apoptosis induction by 1 uM staurosporine (unit (BRET ratio)) [2]: 0.72
Compound: cellular caspase-3 (HeLa cells) (from UniProt P42574 29-277) (enzyme)

Compound: enterokinase enzyme (Invitrogen, Carlsbad, Calif.)
- BRET ratio (emission at 550 nm / 470 nm) over four hours, purified protein with two units of enterokinase [3]: The ratios from the negative controls (Rluc and Rluc:EYFP) did not change over time when in the presence or absence of the enterokinase enzyme
- BRET ratio (emission at 550 nm / 470 nm) over four hours, purified protein with two units of enterokinase [4]: Only the ratio for the construct Rluc:enterokinase:EYFP in the presence of the enterokinase enzyme decreased over time

Compound: CN[C@@H]1C[C@H]2O[C@@](C)([C@@H]1OC)n1c3ccccc3c3c4c(c5c6ccccc6n2c5c31)C(=O)NC4 [staurosporine]
- BRET ratio change [5]: 0.72 unit
- change in BRET ratio [6]: No change in BRET ratio
- BRET ratio change [7]: 0.1 unit
